From publication PMC3501490, “An Investigation of Hierachical Protein Recruitment to the Inhibitory Platelet Receptor, G6B-b” (PLoS ONE, 2012)

Target: G6B-b dual phosphopeptide pY211/pY237 (Homo sapiens), O95866
Experiment: SPR

Sequence of G6B-b dual phosphopeptide pY211/pY237 (Homo sapiens), O95866 (O95866 206-241): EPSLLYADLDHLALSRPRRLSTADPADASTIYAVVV

Kd: 0.48 nM
B1: SHP-2 tandem SH2, Q06124 (protein)
chain: WFHPNITGVEAENLLLTRGVDGSFLARPSKSNPGDFTLSVRRNGAVTHIKIQNTGDYYDLYGGEKFATLAELVQYYMEHHGQLKEKNGDVIELKYPLNCADPTSERWFHGHLSGKEAEKLLTEKGKHGSFLVRESQSHPGDFVLSVRTGDDKGESNDGKSKVTHVMIRCQELKYDVGGGERFDSLTDLVEHYKKNPMVETLGTVLQLKQPL
